B1: Chromodomain-helicase-DNA-binding protein 3, residues 374 to 426; numbered along this chain, Q12873 (parent)
chain: YETDHQDYCEVCQQGGEIILCDTCPRAYHLVCLDPELDRAPEGKWSCPHCEKE
B2: POU domain, class 3, transcription factor 4, residues 280 to 335; numbered along this chain, P49335 (parent)
chain: KKRTSIEVSVKGVLETHFLKCPKPAAQEISSLADSLQLEKEVVRVWFCNRRQKEKR

± gives the uncertainty stated by the source.

In the first series the parent is B1. Kind of series: abundance fitness (aPCA) (normalised: wild type 0, dead -1); higher = more abundant; growth selection in yeast, the domain comes from the species named. Conditions: Homo sapiens.
With D4V, the abundance fitness was 0.166 ± 0.08.
Still for that read-out and setting: next, H5L: 0.161 ± 0.087; H5F: -0.171 ± 0.29; H29C: 0.029 ± 0.13.
Still for that read-out and setting: under H29S stands -0.852 ± 0.13; under H29T, -0.846 ± 0.15; under H29F, -1.07 ± 0.19.
Same read-out and setting: under R39M stands -0.009 ± 0.18; under R39D, -0.138 ± 0.17; under R39F, -0.254 ± 0.14.
On to D7V, for which the abundance fitness is -0.083 ± 0.15.
Still for that read-out and setting: under D7A stands 0.043 ± 0.17; under D7H, -0.012 ± 0.24; under S46R, -0.037 ± 0.097.
As for L37P, the abundance fitness was -0.154 ± 0.12.
Same read-out and setting: under L37S stands -0.295 ± 0.1; under L37R, -0.094 ± 0.11.
The same measure, in the same setting: next, D34F: -0.287 ± 0.12; D34I: -0.383 ± 0.14; D34V: -0.1 ± 0.08.
Same read-out and setting: under D34Y stands -0.327 ± 0.13.
As for D38G, the abundance fitness is -0.142 ± 0.15.
Still for that read-out and setting: next, G16Q: -0.251 ± 0.19; G16E: 0.07 ± 0.15.
Still for that read-out and setting: next, W45F: 0.158 ± 0.17.
The same measure, in the same setting: next, W45Q: 0.19 ± 0.15; C21E: -1.15 ± 0.28; C21Q: -0.822 ± 0.2.
As for C21N, the abundance fitness is -0.903 ± 0.21.
Same read-out and setting: next, C21M: -0.901 ± 0.21; Y1C: 0.258 ± 0.21.
On the same count and under the same terms, next, Y1L: 0.172 ± 0.27.
On the same count and under the same terms, next, T3H: -0.481 ± 0.22; T3P: -0.09 ± 0.12; C12W: -0.836 ± 0.11.
Regarding G43K, the abundance fitness turned out to be 0.119 ± 0.19.
The same measure, in the same setting: next, G43P: 0.057 ± 0.17; G43H: -0.12 ± 0.16.
The same measure, in the same setting: next, C9W: -0.716 ± 0.13; C9R: -0.62 ± 0.1; K44N: -0.492 ± 0.45.
Same read-out and setting: under K44Q stands 0.038 ± 0.14.
Take K44T: the abundance fitness was -0.304 ± 0.18.
The same measure, in the same setting: under V31A stands 0.158 ± 0.12; under V31C, -0.254 ± 0.15.
Same read-out and setting: under V31S stands -0.061 ± 0.096; under V31M, -0.03 ± 0.12.
Still for that read-out and setting: next, A40L: -0.107 ± 0.1.
Turning to A40K, the abundance fitness was -0.188 ± 0.19.
On the same count and under the same terms, next, A40M: -0.004 ± 0.13.
Still for that read-out and setting: next, P35N: -0.196 ± 0.24; K52L: -0.308 ± 0.12; K52N: -0.024 ± 0.18.
On to K52W, for which the abundance fitness is -0.487 ± 0.17.
As to Q14S, the abundance fitness is -0.192 ± 0.096.
Still for that read-out and setting: under Q14P stands -1 ± 0.22; under Q14A, -0.043 ± 0.12; under C32S, -0.68 ± 0.086.
On the same count and under the same terms, next, C32W: -0.502 ± 0.15; E2H: 0.126 ± 0.099; D22M: 0.008 ± 0.28.
Still for that read-out and setting: next, D22S: 0.048 ± 0.15.
D22Q: the abundance fitness was determined as 0.557 ± 0.18.
The same measure, in the same setting: under D22C stands -0.229 ± 0.18.
Take I18S: the abundance fitness is -0.26 ± 0.12.
The same measure, in the same setting: under I18F stands -0.071 ± 0.15; under I18R, -0.12 ± 0.091; under I18T, 0.131 ± 0.14.
The same measure, in the same setting: under E51C stands -0.137 ± 0.17.
Still for that read-out and setting: next, E51W: -0.501 ± 0.18; Q13G: -0.194 ± 0.1.
For the variant Q13Y, the abundance fitness was -0.015 ± 0.11.
Turning to C47R, the abundance fitness was -0.835 ± 0.12.
The same measure, in the same setting: under C47Y stands -0.972 ± 0.23.
Take C47W: the abundance fitness is -0.847 ± 0.18.
Same read-out and setting: next, V11L: 0.145 ± 0.073; V11S: 0.284 ± 0.068; H49W: -0.234 ± 0.14.
Still for that read-out and setting: under H49A stands -0.183 ± 0.16; under H49N, 0.217 ± 0.29.
On the same count and under the same terms, next, E42W: -0.396 ± 0.14; T23S: 0.032 ± 0.1.
Take T23I: the abundance fitness is -0.189 ± 0.12.
The same measure, in the same setting: under T23P stands -0.596 ± 0.14.
With T23Y, the abundance fitness was determined as 0.05 ± 0.12.
The same measure, in the same setting: under P41T stands -0.06 ± 0.14.
Still for that read-out and setting: under P41N stands -0.026 ± 0.19.
Still for that read-out and setting: under P41F stands -0.25 ± 0.2; under L33G, 0.07 ± 0.1; under L33V, -0.182 ± 0.13.
For the variant L33K, the abundance fitness is -0.663 ± 0.15.
The same measure, in the same setting: next, G15C: -0.823 ± 0.34; G15Y: -0.03 ± 0.26; G15P: -0.488 ± 0.31.
Same read-out and setting: next, G15L: -0.366 ± 0.21.
Still for that read-out and setting: under Y28T stands -0.203 ± 0.14; under Y28P, -0.837 ± 0.2; under Q6S, -0.439 ± 0.12.
As to Q6W, the abundance fitness is -0.378 ± 0.17.
For E17I, the abundance fitness is -0.353 ± 0.2.
Same read-out and setting: next, E17F: -0.162 ± 0.14; E17D: -0.047 ± 0.13.
Consider E17H, for which the abundance fitness was -0.882 ± 0.33.
E17T: the abundance fitness stood at 0.053 ± 0.12.
On the same count and under the same terms, next, E17L: -0.258 ± 0.11; E17A: -0.081 ± 0.1.
The same measure, in the same setting: next, C24V: -1.08 ± 0.15; C24G: -0.962 ± 0.14.
The same measure, in the same setting: under L20D stands 0.015 ± 0.16; under E10L, 0.259 ± 0.097.
Turning to L30I, the abundance fitness was -0.27 ± 0.14.
On to L30A, for which the abundance fitness was found to be 0.053 ± 0.11.
Still for that read-out and setting: under L30E stands -0.155 ± 0.14.
In the case of L30K, the abundance fitness was -0.121 ± 0.14.
As for L30D, the abundance fitness is -0.264 ± 0.17.
Still for that read-out and setting: under E36T stands -0.172 ± 0.26.
On the same count and under the same terms, next, E36V: -0.018 ± 0.1; E36L: -0.114 ± 0.11; P25M: -0.227 ± 0.24.
The same measure, in the same setting: under P25S stands -0.116 ± 0.13; under P25A, 0.092 ± 0.14; under P25W, -0.144 ± 0.14.

The variants in a further series derive from B2. The description is as above. Conditions: Homo sapiens.
On to R56Y, for which the abundance fitness was -0.144 ± 0.43.
The same measure, in the same setting: next, R56E: 0.387 ± 0.2; R56T: 0.002 ± 0.39.
On the same count and under the same terms, next, R56A: -0.085 ± 0.29.
Still for that read-out and setting: next, R56L: -0.075 ± 0.19; R56S: 0.015 ± 0.27; R56W: -0.393 ± 0.18.
As for R56N, the abundance fitness came to 0.38 ± 0.48.
R56G: the abundance fitness is -0.325 ± 0.19.
The same measure, in the same setting: next, R56M: 0.123 ± 0.24; K55Q: -0.016 ± 0.48.
K55I: the abundance fitness is -0.604 ± 0.27.
On the same count and under the same terms, next, K55R: -0.027 ± 0.14; K55G: -0.392 ± 0.13.
Take K55Y: the abundance fitness was -0.259 ± 0.24.
With K55F, the abundance fitness was -0.194 ± 0.32.
On the same count and under the same terms, under K55T stands -0.417 ± 0.2; under K55C, -0.017 ± 0.21; under K55D, -0.223 ± 0.28.
With K55P, the abundance fitness is -0.764 ± 0.33.
Still for that read-out and setting: under K55W stands -0.497 ± 0.24.
In the case of K55M, the abundance fitness is -0.264 ± 0.26.
Turning to K55S, the abundance fitness is -0.368 ± 0.17.
The same measure, in the same setting: next, K55E: -0.259 ± 0.22; K55V: -0.069 ± 0.13; K55N: -0.147 ± 0.22.
As to K55A, the abundance fitness was -0.1 ± 0.17.
On the same count and under the same terms, under N49G stands -0.711 ± 0.17; under N49Q, 0 ± 0.16.
N49K: the abundance fitness was -0.119 ± 0.16.
Regarding N49H, the abundance fitness is -0.46 ± 0.2.
Turning to N49F, the abundance fitness was -0.574 ± 0.18.
Still for that read-out and setting: next, N49P: -0.724 ± 0.21.
Still for that read-out and setting: next, N49E: 0.117 ± 0.2; N49I: -0.613 ± 0.24; N49M: -0.304 ± 0.22.
Turning to N49S, the abundance fitness is -0.308 ± 0.14.
On the same count and under the same terms, under N49C stands -0.686 ± 0.28; under N49A, -0.373 ± 0.17; under N49D, 0 ± 0.23.
Same read-out and setting: under N49L stands -0.479 ± 0.14; under N49Y, -0.752 ± 0.23.
On the same count and under the same terms, next, N49W: -0.885 ± 0.21; N49T: -0.363 ± 0.14; R51V: -0.424 ± 0.13.

The values above are taken from the Human Domainome abundance scans (Beltran et al. 2025).
